The record followed here is the array DNA melting data of Ke et al..

This series can be described thus: melting temperature; melt of duplexes. The note with it: sodium 0.0675 M; strand 1 µM.
As to “CGACGTGCGTCATGTGCTG+CAGCACATGCGGCACGTCG ((((((((..(((((((((+)))))))))..))))))))”, the Tm – broadly, the temperature at the midpoint of the melting transition – came to 54.4 °C.

Consider “CGACGTGCAAGATGTGCTG+CAGCACATATAGCACGTCG ((((((((.(.((((((((+)))))))).).))))))))”, for which the Tm was 52 °C.

For “CGACGTGCAAGATGTGCTG+CAGCACATTCGGCACGTCG ((((((((...((((((((+))))))))...))))))))”, the Tm is 51.3 °C.

Regarding “CGACGTGCTGTATGTGCTG+CAGCACATATCGCACGTCG ((((((((..(((((((((+)))))))))..))))))))”, the Tm was 50.9 °C.

For “CGACGTGCGTAATGTGCTG+CAGCACATCCTGCACGTCG ((((((((...((((((((+))))))))...))))))))”, the midpoint of thermal melting (Tm) worked out at 49.7 °C.

Take “CGACGTGCTACATGTGCTG+CAGCACATGCGGCACGTCG ((((((((..(((((((((+)))))))))..))))))))”: the Tm was found to be 54.1 °C.

As for “CGACGTGCAAGATGTGCTG+CAGCACATTGCGCACGTCG ((((((((...((((((((+))))))))...))))))))”, the Tm was found to be 52.9 °C.

In the case of “CGACGTGCGGGATGTGCTG+CAGCACATTTAGCACGTCG ((((((((...((((((((+))))))))...))))))))”, the Tm turned out to be 53.4 °C.

Regarding “CGACGTGCGGAATGTGCTG+CAGCACATCAAGCACGTCG ((((((((...((((((((+))))))))...))))))))”, the Tm turned out to be 53.8 °C.

“CGACGTGCGTCATGTGCTG+CAGCACATACAGCACGTCG ((((((((...((((((((+))))))))...))))))))”: the Tm amounted to 53 °C.

With “CGACGTGCCTAATGTGCTG+CAGCACATTTGGCACGTCG (((((((((.(((((((((+))))))))).)))))))))”, the Tm was 58.7 °C.

As to “CGACGTGCTGGATGTGCTG+CAGCACATTCAGCACGTCG ((((((((((.((((((((+)))))))).))))))))))”, the Tm came out at 60 °C.

As to “CGACGTGCAAGATGTGCTG+CAGCACATCGTGCACGTCG (((((((((.(((((((((+))))))))).)))))))))”, the Tm stood at 57.4 °C.

For “CGACGTGCAGCATGTGCTG+CAGCACATCATGCACGTCG (((((((((..((((((((+))))))))..)))))))))”, the Tm was found to be 49.5 °C.

Take “CGACGTGCCCAATGTGCTG+CAGCACATGGGGCACGTCG ((((((((((.((((((((+)))))))).))))))))))”: the Tm came to 61.3 °C.

For the substance “CGACGTGCCAGATGTGCTG+CAGCACATATCGCACGTCG ((((((((.(.((((((((+)))))))).).))))))))”, the Tm was 49.1 °C.

Take “CGACGTGCTAAATGTGCTG+CAGCACATGCTGCACGTCG ((((((((...((((((((+))))))))...))))))))”: the Tm was found to be 50.1 °C.

As to “CGACGTGCAAAATGTGCTG+CAGCACATCCGGCACGTCG ((((((((...((((((((+))))))))...))))))))”, the Tm was determined as 49.1 °C.

“CGACGTGCAGTATGTGCTG+CAGCACATGTAGCACGTCG ((((((((...((((((((+))))))))...))))))))”: the Tm stood at 49.8 °C.

“CGACGTGCCCGATGTGCTG+CAGCACATGTTGCACGTCG ((((((((...((((((((+))))))))...))))))))”: the Tm was found to be 48.1 °C.

Turning to “CGACGTGCTAAATGTGCTG+CAGCACATCCCGCACGTCG ((((((((...((((((((+))))))))...))))))))”, the Tm was 48.9 °C.

With “CGACGTGCATGATGTGCTG+CAGCACATTACGCACGTCG ((((((((.(.((((((((+)))))))).).))))))))”, the Tm worked out at 50.6 °C.

In the case of “CGACGTGCTACATGTGCTG+CAGCACATTGTGCACGTCG ((((((((...((((((((+))))))))...))))))))”, the Tm worked out at 48.7 °C.

Consider “CGACGTGCACCATGTGCTG+CAGCACATCGGGCACGTCG ((((((((.(.((((((((+)))))))).).))))))))”, for which the Tm is 49.4 °C.

For the substance “CGACGTGCTCGATGTGCTG+CAGCACATATCGCACGTCG ((((((((...((((((((+))))))))...))))))))”, the Tm turned out to be 47.8 °C.

“CGACGTGCCAGATGTGCTG+CAGCACATATGGCACGTCG ((((((((((.((((((((+)))))))).))))))))))”: the Tm was found to be 59.9 °C.

Take “CGACGTGCCTGATGTGCTG+CAGCACATGACGCACGTCG ((((((((.(.((((((((+)))))))).).))))))))”: the Tm worked out at 44.5 °C.

Take “CGACGTGCTCGATGTGCTG+CAGCACATAAAGCACGTCG (((((((((..((((((((+))))))))..)))))))))”: the Tm came to 52.7 °C.

As to “CGACGTGCTCGATGTGCTG+CAGCACATCGCGCACGTCG ((((((((.((((((((((+)))))))))).))))))))”, the Tm was determined as 59.6 °C.

With “CGACGTGCAGGATGTGCTG+CAGCACATGCGGCACGTCG ((((((((.(.((((((((+)))))))).).))))))))”, the Tm was 55.3 °C.

On to “CGACGTGCGACATGTGCTG+CAGCACATAGTGCACGTCG ((((((((...((((((((+))))))))...))))))))”, for which the Tm worked out at 48.8 °C.

For the substance “CGACGTGCATGATGTGCTG+CAGCACATAGCGCACGTCG ((((((((...((((((((+))))))))...))))))))”, the Tm worked out at 47.4 °C.

As for “CGACGTGCGGCATGTGCTG+CAGCACATATCGCACGTCG (((((((((..((((((((+))))))))..)))))))))”, the Tm was 54.7 °C.

Consider “CGACGTGCGCCATGTGCTG+CAGCACATACGGCACGTCG ((((((((...((((((((+))))))))...))))))))”, for which the Tm is 46.6 °C.

Regarding “CGACGTGCAGTATGTGCTG+CAGCACATGCGGCACGTCG ((((((((.(.((((((((+)))))))).).))))))))”, the Tm stood at 55.3 °C.

Take “CGACGTGCTAAATGTGCTG+CAGCACATCCGGCACGTCG ((((((((...((((((((+))))))))...))))))))”: the Tm came out at 49.5 °C.

As to “CGACGTGCTACATGTGCTG+CAGCACATACTGCACGTCG ((((((((...((((((((+))))))))...))))))))”, the Tm was 49.3 °C.

Turning to “CGACGTGCGCCATGTGCTG+CAGCACATTAAGCACGTCG ((((((((...((((((((+))))))))...))))))))”, the Tm was 52.1 °C.

Consider “CGACGTGCACCATGTGCTG+CAGCACATGCGGCACGTCG ((((((((..(((((((((+)))))))))..))))))))”, for which the Tm was determined as 50.4 °C.

Turning to “CGACGTGCCTTATGTGCTG+CAGCACATGGTGCACGTCG ((((((((...((((((((+))))))))...))))))))”, the Tm amounted to 46 °C.

For “CGACGTGCTCTATGTGCTG+CAGCACATAGTGCACGTCG ((((((((.((((((((((+)))))))))).))))))))”, the Tm came to 54.1 °C.

As for “CGACGTGCCGAATGTGCTG+CAGCACATTAGGCACGTCG (((((((((.(((((((((+))))))))).)))))))))”, the Tm is 59.6 °C.

Regarding “CGACGTGCATGATGTGCTG+CAGCACATTGCGCACGTCG ((((((((...((((((((+))))))))...))))))))”, the Tm is 49.1 °C.

With “CGACGTGCTCAATGTGCTG+CAGCACATGCCGCACGTCG ((((((((...((((((((+))))))))...))))))))”, the melting temperature (Tm) was found to be 49 °C.

Take “CGACGTGCACCATGTGCTG+CAGCACATTAAGCACGTCG ((((((((...((((((((+))))))))...))))))))”: the Tm is 43.9 °C.

For the substance “CGACGTGCGCAATGTGCTG+CAGCACATTTAGCACGTCG ((((((((..(((((((((+)))))))))..))))))))”, the Tm is 53 °C.

Take “CGACGTGCCTAATGTGCTG+CAGCACATGGGGCACGTCG (((((((((..((((((((+))))))))..)))))))))”: the Tm stood at 56 °C.

Consider “CGACGTGCTTAATGTGCTG+CAGCACATGAAGCACGTCG ((((((((((.((((((((+)))))))).))))))))))”, for which the Tm was found to be 57.4 °C.

Turning to “CGACGTGCGGAATGTGCTG+CAGCACATCGTGCACGTCG ((((((((...((((((((+))))))))...))))))))”, the Tm worked out at 46.7 °C.

Take “CGACGTGCGCGATGTGCTG+CAGCACATAAAGCACGTCG ((((((((...((((((((+))))))))...))))))))”: the Tm is 54 °C.

Turning to “CGACGTGCATGATGTGCTG+CAGCACATGGGGCACGTCG ((((((((...((((((((+))))))))...))))))))”, the Tm amounted to 50 °C.

Regarding “CGACGTGCCTCATGTGCTG+CAGCACATACGGCACGTCG (((((((((..((((((((+))))))))..)))))))))”, the Tm was 52.4 °C.

Take “CGACGTGCGGGATGTGCTG+CAGCACATAGCGCACGTCG (((((((((..((((((((+))))))))..)))))))))”: the Tm was found to be 57.4 °C.

Regarding “CGACGTGCCCGATGTGCTG+CAGCACATACTGCACGTCG ((((((((...((((((((+))))))))...))))))))”, the Tm was determined as 48.7 °C.

As for “CGACGTGCTTTATGTGCTG+CAGCACATGACGCACGTCG ((((((((.(.((((((((+)))))))).).))))))))”, the Tm amounted to 47.1 °C.

As to “CGACGTGCCACATGTGCTG+CAGCACATTAGGCACGTCG (((((((((..((((((((+))))))))..)))))))))”, the Tm was 54.2 °C.

For “CGACGTGCATAATGTGCTG+CAGCACATGACGCACGTCG ((((((((.(.((((((((+)))))))).).))))))))”, the Tm is 50.5 °C.

In the case of “CGACGTGCTATATGTGCTG+CAGCACATAAGGCACGTCG ((((((((..(((((((((+)))))))))..))))))))”, the Tm stood at 52.5 °C.

In the case of “CGACGTGCTAGATGTGCTG+CAGCACATCTTGCACGTCG ((((((((.((((((((((+)))))))))).))))))))”, the Tm came out at 58.7 °C.

Consider “CGACGTGCGGAATGTGCTG+CAGCACATAGCGCACGTCG (((((((((..((((((((+))))))))..)))))))))”, for which the Tm is 55.5 °C.

For “CGACGTGCATAATGTGCTG+CAGCACATCTGGCACGTCG ((((((((...((((((((+))))))))...))))))))”, the Tm was 49.3 °C.

Regarding “CGACGTGCCGCATGTGCTG+CAGCACATAACGCACGTCG ((((((((...((((((((+))))))))...))))))))”, the Tm is 48.3 °C.

For the substance “CGACGTGCCACATGTGCTG+CAGCACATTTCGCACGTCG ((((((((.(.((((((((+)))))))).).))))))))”, the Tm was 47.3 °C.

“CGACGTGCTAAATGTGCTG+CAGCACATCGGGCACGTCG ((((((((...((((((((+))))))))...))))))))”: the Tm is 49.7 °C.

For the substance “CGACGTGCCCTATGTGCTG+CAGCACATACGGCACGTCG (((((((((.(((((((((+))))))))).)))))))))”, the Tm was 53.5 °C.

Take “CGACGTGCTACATGTGCTG+CAGCACATGCTGCACGTCG ((((((((..(((((((((+)))))))))..))))))))”: the Tm is 52.8 °C.
